Reference: patent publication US20240400657A1 (MorphoSys, published 2024)
Where a chain is given by its changes, count along the chain named.

T1: Mouse FcRn p51 [1-297]/AviHis/p14 biotinylated (mouse, UniProt Q61559 22-298; P01887 21-119, biotinylated in vitro with BirA (Avi tag))
T1 construct: Heterodimer; UniProt Q61559 (p51); also called Murine FcRn
T1 chain 1: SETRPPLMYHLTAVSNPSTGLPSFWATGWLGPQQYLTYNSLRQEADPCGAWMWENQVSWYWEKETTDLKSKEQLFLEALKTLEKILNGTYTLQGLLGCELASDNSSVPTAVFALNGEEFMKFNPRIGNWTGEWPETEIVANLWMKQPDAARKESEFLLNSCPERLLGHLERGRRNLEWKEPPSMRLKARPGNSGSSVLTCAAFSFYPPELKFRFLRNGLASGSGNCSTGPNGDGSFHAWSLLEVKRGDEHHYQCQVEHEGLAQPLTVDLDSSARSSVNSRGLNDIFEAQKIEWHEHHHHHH
T1 chain 2: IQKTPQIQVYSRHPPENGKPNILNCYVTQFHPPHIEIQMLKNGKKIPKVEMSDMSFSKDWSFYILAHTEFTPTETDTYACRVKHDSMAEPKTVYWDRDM

T2: Rat FcRn p51 [1-298]/AviHis/p14 biotinylated (rat, UniProt P13599 23-299; P07151 21-119, biotinylated in vitro with BirA (Avi tag))
T2 construct: Heterodimer; UniProt P13599 (p51)
T2 sequence 1: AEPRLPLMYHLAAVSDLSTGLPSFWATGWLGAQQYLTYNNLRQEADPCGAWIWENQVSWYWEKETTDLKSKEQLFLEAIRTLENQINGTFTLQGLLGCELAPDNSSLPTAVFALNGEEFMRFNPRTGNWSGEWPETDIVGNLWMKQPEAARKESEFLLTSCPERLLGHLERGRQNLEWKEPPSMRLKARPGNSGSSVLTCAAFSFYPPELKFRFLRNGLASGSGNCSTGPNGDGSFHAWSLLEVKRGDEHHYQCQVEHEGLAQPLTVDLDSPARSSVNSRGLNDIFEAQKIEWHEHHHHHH
T2 sequence 2: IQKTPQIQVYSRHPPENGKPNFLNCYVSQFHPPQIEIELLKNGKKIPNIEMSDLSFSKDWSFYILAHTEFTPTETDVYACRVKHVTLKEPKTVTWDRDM

T3: human C5aR_NT-bio peptide (human, biotin tag (position not given))
T3 construct: Chemically synthesized linear peptide (Genscript); also called human C5aR N-terminal peptide; human C5aR peptide
T3 peptide: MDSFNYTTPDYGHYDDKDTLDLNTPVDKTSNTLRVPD

T4: Human FcγRIIa (1-209)-(131H)-HIS6 (human, UniProt P12318 34-209)
T4 construct: Extracellular region with C-terminal 6xHis tag; UniProt P12318 printed
T4 sequence: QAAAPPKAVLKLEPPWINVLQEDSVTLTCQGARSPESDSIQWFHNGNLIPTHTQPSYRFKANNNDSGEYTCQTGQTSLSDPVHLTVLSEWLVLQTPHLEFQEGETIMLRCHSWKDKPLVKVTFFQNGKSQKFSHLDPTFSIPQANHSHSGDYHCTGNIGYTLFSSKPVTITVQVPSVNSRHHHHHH

T5: Human FcγRIIB (1-202)-HIS6 (human, UniProt P31994 43-217)
T5 construct: Extracellular region with C-terminal 6xHis tag; UniProt P31994 printed
T5 sequence: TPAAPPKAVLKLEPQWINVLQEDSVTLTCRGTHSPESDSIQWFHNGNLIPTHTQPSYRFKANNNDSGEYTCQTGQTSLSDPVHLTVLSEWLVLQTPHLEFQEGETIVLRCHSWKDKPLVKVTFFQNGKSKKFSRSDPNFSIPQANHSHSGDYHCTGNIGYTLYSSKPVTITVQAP

B1: MAB #2 (antibody, human IgG1, lambda)
heavy: EVQLVESGGGLVKPGGSLRLSCAASGFTFSSYAMHWVRQAPGKGLEWVGRIKSVAQGGTTDYAAHVKGRFTISRDDSKNTLYLQMNSLKTEDTAVYYCARVSHSTFDVWGQGTLVTVSSASTKGPSVFPLAPSSKSTSGGTAALGCLVKDYFPEPVTVSWNSGALTSGVHTFPAVLQSSGLYSLSSVVTVPSSSLGTQTYICNVNHKPSNTKVDKRVEPKSCDKTHTCPPCPAPEAEGAPSVFLFPPKPKDTLMISRTPEVTCVVVDVSHEDPEVKFNWYVDGVEVHNAKTKPREEQYNSTYRVVSVLTVLHQDWLNGKEYKCKVSNKALPSSIEKTISKAKGQPREPQVYTLPPSREEMTKNQVSLTCLVKGFYPSDIAVEWESNGQPENNYKTTPPVLDSDGSFFLYSKLTVDKSRWQQGNVFSCSVMHEALHNHYTQKSLSLSPGK
light: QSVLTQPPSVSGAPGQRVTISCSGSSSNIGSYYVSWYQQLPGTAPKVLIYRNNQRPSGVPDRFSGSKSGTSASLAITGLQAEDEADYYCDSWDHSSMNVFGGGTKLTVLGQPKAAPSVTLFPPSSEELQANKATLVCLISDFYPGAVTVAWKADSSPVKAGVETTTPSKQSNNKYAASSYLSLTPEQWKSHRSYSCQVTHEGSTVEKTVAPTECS
notes: lambda 1 light chain
B2: MAB #1 (antibody, human IgG1, lambda)
heavy: B1 heavy with V54K, H103F
light: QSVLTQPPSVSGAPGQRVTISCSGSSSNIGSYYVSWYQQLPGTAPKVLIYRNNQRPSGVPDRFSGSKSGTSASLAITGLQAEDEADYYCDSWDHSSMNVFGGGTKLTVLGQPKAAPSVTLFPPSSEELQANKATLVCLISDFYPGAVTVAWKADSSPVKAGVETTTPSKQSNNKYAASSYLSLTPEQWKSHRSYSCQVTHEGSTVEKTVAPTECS
notes: lambda 1 light chain, VH3-15 framework

Legend:
[1] = biological target: T1, Mouse FcRn p51 [1-297]/AviHis/p14 …; assay: BLI (Octet HTX), biotinylated FcRn on SA sensors, IgG titrated, steady state fit, apparent KD, pH 7.2
Text: (§1) 0.5 nm of biotinylated human, cynomolgus, mouse and rat FcRn were captured on streptavidin (SA) sensors (FortéBIO, Pall Life Sciences). […] All sensorgrams were fitted using Data Analysis Software 10.0 (FortéBIO, Pall Life Sciences) to determine the apparent affinity and the data was fitted with a steady state model.

[2] = biological target: T2, Rat FcRn p51 [1-298]/AviHis/p14 …; assay: as above
Text: as §1

[3] = biological target: T3, human C5aR_NT-bio peptide; assay: BLI (Octet HTX), biotinylated peptide on SA sensors, IgG as analyte, 1:1 fit, apparent (bivalent)
Ovalbumin = assay: Protein Panel Profiling (3P), MSD ECL, coated antigen, IgG 100 nM
Experimental: (§2) 32 different proteins and controls were coated on two 384-well MSD standard plates at a concentration of 1.0 μg/mL at 4° C. over night. The coating solution was discarded and plates were blocked with 50 μL 3% (w/v) BSA in PBS for one hour at RT on a microtiter plate shaker (˜500 rpm) followed by three washing steps with 50 μL washing buffer (PBS with 0.05% (v/v) Tween 20). IgG samples were diluted to 100 nM and 10 nM in assay buffer (PBS with 0.5% (w/v) BSA, 0.05% (v/v) Tween 20). As controls, isotype control antibody MOR03207 (IgG1f_AEASS) and assay buffer were used. Samples and controls were added at 30 μL/well and incubated for three hours at RT on a microtiter plate shaker. The plates were washed three times and 30 μL detection antibody (ECL-labeled anti-human Fab) were added per well and incubated for one hour on a microtiter plate shaker (˜500 rpm). After washing the MSD plate and adding 35 μL/well MSD Read Buffer T with surfactant, electro-chemiluminescence signals were detected using a SECTOR® Imager S600 instrument (Meso Scale Diagnostics).
(§3) For evaluation, binding signals of the antibody sample to a certain protein were divided by the respective binding signals of the reference antibody MOR03207 resulting in a binding ratio (BR). The cumulative binding ratio (CBR) of all proteins except the controls (25 in total) was then calculated: CBR up to 150 indicates an IgG without detectable unspecific binding. Values above 150 indicates an IgG with increased unspecific binding compared to the reference antibody MOR03207.

Cytochrome C = assay: as above
Experimental: as §2, §3

[4] = biological target: T6, Cell surface rec. 3_Fc (h); assay: as above
T6 construct: identity not disclosed
Experimental: as §2, §3

[5] = biological target: T7, Cell surface rec. 1_Lys (h); assay: as above
T7 construct: identity not disclosed
Experimental: as §2, §3

anti-human Fc = biological target: T8, anti-human Fc; assay: as above
T8 construct: control of the 3P panel; it captures human IgG as such, so a ratio of 1 means a signal equal to that of MOR03207
Experimental: as §2, §3

GFP = assay: as above
Experimental: as §2, §3

Pepsinogen = assay: as above
Experimental: as §2, §3

Lysozyme = assay: as above
Experimental: as §2, §3

Hemoglobin (h) = biological target: T9, Hemoglobin (h) (human); assay: as above
T9 construct: '(h)' on the sheet read as human
Experimental: as §2, §3

bovine transferrin = bovine transferrin (bovine, UniProt Q29443 20-704); assay: as above
Experimental: as §2, §3

Human FcγRI (1-279)_HIS6 = biological target: T10, Human FcγRI (1-279)_HIS6 (human, UniProt P12314 16-280); assay: BLI (Octet), IgG captured on Protein A sensors, FcγR titrated
T10 construct: Extracellular region with C-terminal 6xHis tag; UniProt P12314 printed
Experimental: (§4) 2.0 nm of IgGs diluted in Octet assay buffer (PBS, 0.05% (v/v) Tween-20, 0.1% (w/v) BSA) were captured on Protein A sensors (FortéBIO, Pall Life Sciences). Kinetic measurements were performed using 7 concentrations of Fc gamma receptors (2n serial dilution) in assay buffer. […] All sensorgrams were fitted using Data Analysis Software 10.0, (FortéBIO, Pall Life Sciences) to determine kₒₙ and koff rate constants, which were used to calculate KD. The raw data was fitted with a 1:1 binding model, with parameter Rₘₐₓ set to local.

[6] = biological target: T4, Human FcγRIIa (1-209)-(131H)-HIS6; assay: as above
Experimental: as §4

[7] = biological target: T5, Human FcγRIIB (1-202)-HIS6; assay: as above
Experimental: as §4

T9 sequence (P69905 2-142, chain 1 of 2): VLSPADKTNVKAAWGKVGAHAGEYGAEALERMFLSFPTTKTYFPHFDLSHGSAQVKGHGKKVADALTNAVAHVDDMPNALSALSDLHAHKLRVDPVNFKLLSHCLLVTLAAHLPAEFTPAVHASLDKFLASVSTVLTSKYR
T9 sequence (P68871 2-147, chain 2 of 2, further chain): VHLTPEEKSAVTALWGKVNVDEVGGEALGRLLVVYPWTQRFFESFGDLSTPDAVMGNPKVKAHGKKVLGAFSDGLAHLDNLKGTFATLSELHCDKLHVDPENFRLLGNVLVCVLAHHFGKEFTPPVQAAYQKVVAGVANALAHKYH
Lysozyme, sequence (P00698 19-147): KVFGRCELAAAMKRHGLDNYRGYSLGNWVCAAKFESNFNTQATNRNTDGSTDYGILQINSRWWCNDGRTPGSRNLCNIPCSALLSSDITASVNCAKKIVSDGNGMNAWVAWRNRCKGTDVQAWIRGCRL
Ovalbumin, sequence (P01012 2-386): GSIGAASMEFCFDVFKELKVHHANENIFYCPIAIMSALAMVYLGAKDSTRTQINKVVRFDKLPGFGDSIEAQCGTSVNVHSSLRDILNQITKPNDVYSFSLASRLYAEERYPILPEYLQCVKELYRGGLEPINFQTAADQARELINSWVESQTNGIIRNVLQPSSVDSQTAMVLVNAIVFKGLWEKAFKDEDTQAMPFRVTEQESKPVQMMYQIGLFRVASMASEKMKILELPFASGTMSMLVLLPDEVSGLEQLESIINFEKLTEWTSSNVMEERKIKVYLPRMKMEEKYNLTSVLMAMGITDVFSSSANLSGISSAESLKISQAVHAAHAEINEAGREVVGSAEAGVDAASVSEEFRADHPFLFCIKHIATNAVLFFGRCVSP
bovine transferrin, sequence (Q29443 20-704 limits assumed): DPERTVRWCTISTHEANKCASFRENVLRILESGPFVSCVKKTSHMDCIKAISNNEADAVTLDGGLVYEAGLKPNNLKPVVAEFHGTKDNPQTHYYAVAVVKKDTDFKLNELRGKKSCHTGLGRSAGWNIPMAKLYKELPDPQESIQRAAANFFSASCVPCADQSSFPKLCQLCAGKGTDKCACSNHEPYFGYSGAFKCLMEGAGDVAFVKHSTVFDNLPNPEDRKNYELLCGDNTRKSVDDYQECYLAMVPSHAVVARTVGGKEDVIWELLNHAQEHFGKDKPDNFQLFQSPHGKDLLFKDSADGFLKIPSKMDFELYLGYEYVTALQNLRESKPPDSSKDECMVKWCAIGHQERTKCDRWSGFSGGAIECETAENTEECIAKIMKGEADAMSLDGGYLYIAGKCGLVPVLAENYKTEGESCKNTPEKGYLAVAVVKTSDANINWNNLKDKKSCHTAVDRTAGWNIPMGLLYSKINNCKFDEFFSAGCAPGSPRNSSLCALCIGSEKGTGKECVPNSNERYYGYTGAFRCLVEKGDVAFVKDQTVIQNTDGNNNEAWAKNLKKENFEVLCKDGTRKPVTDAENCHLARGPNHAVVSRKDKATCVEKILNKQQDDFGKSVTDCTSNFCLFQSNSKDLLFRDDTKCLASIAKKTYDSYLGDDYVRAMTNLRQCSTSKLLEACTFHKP
T10 sequence (P12314 other isoform, or with tags, fused parts or gaps): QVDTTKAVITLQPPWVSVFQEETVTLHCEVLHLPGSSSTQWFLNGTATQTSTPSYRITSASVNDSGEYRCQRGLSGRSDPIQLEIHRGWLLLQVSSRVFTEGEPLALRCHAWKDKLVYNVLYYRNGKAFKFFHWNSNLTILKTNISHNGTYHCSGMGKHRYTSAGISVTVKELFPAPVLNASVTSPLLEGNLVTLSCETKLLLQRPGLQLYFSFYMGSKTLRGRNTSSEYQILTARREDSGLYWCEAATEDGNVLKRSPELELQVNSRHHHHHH

Row | Binder | Kd [1] | Kd [2] | Kd [3] | koff [3] | kon [3] | binding ratio (signal / signal of MOR03207) (Ovalbumin) | binding ratio (signal / signal of MOR03207) (Cytochrome C) | binding ratio (signal / signal of MOR03207) [4] | binding ratio (signal / signal of MOR03207) [5] | binding ratio (signal / signal of MOR03207) (anti-human Fc) | binding ratio (signal / signal of MOR03207) (GFP) | binding ratio (signal / signal of MOR03207) (Pepsinogen) | binding ratio (signal / signal of MOR03207) (Lysozyme) | binding ratio (signal / signal of MOR03207) (Hemoglobin (h)) | binding ratio (signal / signal of MOR03207) (bovine transferrin) | binding result (Human FcγRI (1-279)_HIS6) | binding result [6] | binding result [7]
1 | B1 | 130 nM | 300 nM | 0.29 nM | 0.000111 s⁻¹ | 378000 M⁻¹ s⁻¹ | 4 | 2 | 2 | 2 | 1 | 2 | 5 | 2 | 2 | 9 | no binding | no binding | no binding
2 | B2 | 39 nM | 110 nM | 0.02 nM | 9.99e-06 s⁻¹ | 476000 M⁻¹ s⁻¹ | 2 | 2 | 2 | 2 | 1 | 2 | 4 | 2 | 2 | 19 | no binding | no binding | no binding
